Patent US20190352356A1
Bridges are numbered along the chain shown (N, C = ends). Where no end group is shown, it is not given here.

Experiments:
[1] = target: human amylin receptor (hAMY1(a)) (human) (UniProt P30988); assay: cell-based or functional assay
[2] = target: human calcitonin receptor (hCT(a)) (human) (UniProt P30988); assay: cell-based or functional assay
Chain of human calcitonin receptor (hCT(a)) (human) (P30988 25-474): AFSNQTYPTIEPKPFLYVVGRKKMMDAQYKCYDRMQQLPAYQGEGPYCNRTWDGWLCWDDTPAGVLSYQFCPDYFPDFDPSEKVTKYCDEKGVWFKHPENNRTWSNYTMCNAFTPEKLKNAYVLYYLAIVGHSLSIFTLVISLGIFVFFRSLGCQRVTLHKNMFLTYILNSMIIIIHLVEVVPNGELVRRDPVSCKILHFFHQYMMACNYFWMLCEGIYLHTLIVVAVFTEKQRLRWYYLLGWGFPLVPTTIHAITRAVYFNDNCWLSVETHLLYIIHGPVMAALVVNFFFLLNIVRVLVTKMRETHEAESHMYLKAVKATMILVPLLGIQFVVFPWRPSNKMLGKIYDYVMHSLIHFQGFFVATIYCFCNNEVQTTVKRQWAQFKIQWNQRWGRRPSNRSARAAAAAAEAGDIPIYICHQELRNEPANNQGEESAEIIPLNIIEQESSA

Chain of human amylin receptor (hAMY1(a)) (human) (P30988 25-474, chain 1 of 2): as the sequence (P30988 25-474) above
Chain of human amylin receptor (hAMY1(a)) (human) (O60894 27-148, chain 2 of 2, further chain): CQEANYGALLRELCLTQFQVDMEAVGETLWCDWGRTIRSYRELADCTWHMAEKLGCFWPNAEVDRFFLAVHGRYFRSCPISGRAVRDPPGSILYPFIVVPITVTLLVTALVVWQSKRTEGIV

pEC50 of cAMP production (pEC50 (-log10(EC50))) [1] | pEC50 of cAMP production (pEC50 (-log10(EC50))) [2] | Binder
8.47 | 8.3 | KCNTATCATQRLANFLVHSSNKFPAPLSSTKVGSNTY (HELM PEPTIDE1{K.C.N.T.A.T.C.A.T.Q.R.L.A.N.F.L.V.H.S.S.N.K.F.P.A.P.L.S.S.T.K.V.G.S.N.T.Y.[am]}$PEPTIDE1,PEPTIDE1,2:R3-7:R3$$$V2.0; N-terminus assumed; SMILES CC(C)C[C@H](NC(=O)[C@H](CCCNC(=N)N)NC(=O)[C@H](CCC(N)=O)NC(=O)[C@@H](NC(=O)[C@H](C)NC(=O)[C@@H]1CSSC[C@H](NC(=O)[C@@H](N)CCCCN)C(=O)N[C@@H](CC(N)=O)C(=O)N[C@@H]([C@@H](C)O)C(=O)N[C@@H](C)C(=O)N[C@@H]([C@@H](C)O)C(=O)N1)[C@@H](C)O)C(=O)N[C@@H](C)C(=O)N[C@@H](CC(N)=O)C(=O)N[C@@H](Cc1ccccc1)C(=O)N[C@@H](CC(C)C)C(=O)N[C@H](C(=O)N[C@@H](Cc1c[nH]cn1)C(=O)N[C@@H](CO)C(=O)N[C@@H](CO)C(=O)N[C@@H](CC(N)=O)C(=O)N[C@@H](CCCCN)C(=O)N[C@@H](Cc1ccccc1)C(=O)N1CCC[C@H]1C(=O)N[C@@H](C)C(=O)N1CCC[C@H]1C(=O)N[C@@H](CC(C)C)C(=O)N[C@@H](CO)C(=O)N[C@@H](CO)C(=O)N[C@H](C(=O)N[C@@H](CCCCN)C(=O)N[C@H](C(=O)NCC(=O)N[C@@H](CO)C(=O)N[C@@H](CC(N)=O)C(=O)N[C@H](C(=O)N[C@@H](Cc1ccc(O)cc1)C(N)=O)[C@@H](C)O)C(C)C)[C@@H](C)O)C(C)C) [exemplary mutant-hIAPP polypeptide mutant analog 1 (N22K, G24P, I26P, N31K)]
8.75 | 7.97 | KCNTATCATQRLANFLVHSSKNFPAPLSSTNVGSKTY (HELM PEPTIDE1{K.C.N.T.A.T.C.A.T.Q.R.L.A.N.F.L.V.H.S.S.K.N.F.P.A.P.L.S.S.T.N.V.G.S.K.T.Y.[am]}$PEPTIDE1,PEPTIDE1,2:R3-7:R3$$$V2.0; N-terminus assumed; SMILES CC(C)C[C@H](NC(=O)[C@H](CCCNC(=N)N)NC(=O)[C@H](CCC(N)=O)NC(=O)[C@@H](NC(=O)[C@H](C)NC(=O)[C@@H]1CSSC[C@H](NC(=O)[C@@H](N)CCCCN)C(=O)N[C@@H](CC(N)=O)C(=O)N[C@@H]([C@@H](C)O)C(=O)N[C@@H](C)C(=O)N[C@@H]([C@@H](C)O)C(=O)N1)[C@@H](C)O)C(=O)N[C@@H](C)C(=O)N[C@@H](CC(N)=O)C(=O)N[C@@H](Cc1ccccc1)C(=O)N[C@@H](CC(C)C)C(=O)N[C@H](C(=O)N[C@@H](Cc1c[nH]cn1)C(=O)N[C@@H](CO)C(=O)N[C@@H](CO)C(=O)N[C@@H](CCCCN)C(=O)N[C@@H](CC(N)=O)C(=O)N[C@@H](Cc1ccccc1)C(=O)N1CCC[C@H]1C(=O)N[C@@H](C)C(=O)N1CCC[C@H]1C(=O)N[C@@H](CC(C)C)C(=O)N[C@@H](CO)C(=O)N[C@@H](CO)C(=O)N[C@H](C(=O)N[C@@H](CC(N)=O)C(=O)N[C@H](C(=O)NCC(=O)N[C@@H](CO)C(=O)N[C@@H](CCCCN)C(=O)N[C@H](C(=O)N[C@@H](Cc1ccc(O)cc1)C(N)=O)[C@@H](C)O)C(C)C)[C@@H](C)O)C(C)C) [exemplary mutant-hIAPP polypeptide mutant analog 2 (N21K, G24P, I26P, N35K)]
9.43 | 8.55 | KCNTATCATQRLANFLVHSSNKFGAILPSTKVGSNTY-NH2 (disulfide 2-7; not fully specified; printed as KCNTATCATQRLANFLVHSSNKFGAILPSTKVGSNTY-NH2) [exemplary mutant-hIAPP polypeptide mutant analog 4 (N22K, S28P, N31K as SEQ ID NO: 22 is printed)]
9.13 | 8.62 | KCNTATCATQRLANFLVHSSKNFGAILSSTNVGSKTY (HELM PEPTIDE1{K.C.N.T.A.T.C.A.T.Q.R.L.A.N.F.L.V.H.S.S.K.N.F.G.A.I.L.S.S.T.N.V.G.S.K.T.Y.[am]}$PEPTIDE1,PEPTIDE1,2:R3-7:R3$$$V2.0; N-terminus assumed; SMILES CC[C@H](C)[C@H](NC(=O)[C@H](C)NC(=O)CNC(=O)[C@H](Cc1ccccc1)NC(=O)[C@H](CC(N)=O)NC(=O)[C@H](CCCCN)NC(=O)[C@H](CO)NC(=O)[C@H](CO)NC(=O)[C@H](Cc1c[nH]cn1)NC(=O)[C@@H](NC(=O)[C@H](CC(C)C)NC(=O)[C@H](Cc1ccccc1)NC(=O)[C@H](CC(N)=O)NC(=O)[C@H](C)NC(=O)[C@H](CC(C)C)NC(=O)[C@H](CCCNC(=N)N)NC(=O)[C@H](CCC(N)=O)NC(=O)[C@@H](NC(=O)[C@H](C)NC(=O)[C@@H]1CSSC[C@H](NC(=O)[C@@H](N)CCCCN)C(=O)N[C@@H](CC(N)=O)C(=O)N[C@@H]([C@@H](C)O)C(=O)N[C@@H](C)C(=O)N[C@@H]([C@@H](C)O)C(=O)N1)[C@@H](C)O)C(C)C)C(=O)N[C@@H](CC(C)C)C(=O)N[C@@H](CO)C(=O)N[C@@H](CO)C(=O)N[C@H](C(=O)N[C@@H](CC(N)=O)C(=O)N[C@H](C(=O)NCC(=O)N[C@@H](CO)C(=O)N[C@@H](CCCCN)C(=O)N[C@H](C(=O)N[C@@H](Cc1ccc(O)cc1)C(N)=O)[C@@H](C)O)C(C)C)[C@@H](C)O) [exemplary mutant-hIAPP polypeptide mutant analog 3 (N21K, N35K)]
